# In the supplement of paper PMC9112550, “Optimization of the antimicrobial peptide Bac7 by deep mutational scanning” (BMC Biology, 2022):
# System: Escherichia coli TOP10
# Test: shrunken log2 fold change of peptide-encoding DNA abundance (4.5 h post-induction vs induction); higher = less antimicrobial activity (less host growth inhibition)
# Conditions: time post-induction: 4.5 h; library: site-saturation at positions 5, 18, 19, 20
# 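Further: peptides expressed intracellularly from a pBAD plasmid library in pooled LB shake-flask culture, induced with 0.3% L-arabinose, DNA abundance read by NGS, three biological replicates, DESeq2 with apeglm shrinkage.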
row,Sequence,shrunken log2 fold change
1,RRIRKRPPRLPRPRPRPVFFPRP,0.341
2,RRIRKRPPRLPRPRPRPVFPPRP,0.0527
3,RRIRKRPPRLPRPRPRPVIHPRP,-0.0677
4,RRIRKRPPRLPRPRPRPVKCPRP,0.105
5,RRIRKRPPRLPRPRPRPVKVPRP,0.432
6,RRIRKRPPRLPRPRPRPVLAPRP,0.605
7,RRIRKRPPRLPRPRPRPVLDPRP,0.0689
8,RRIRKRPPRLPRPRPRPVLMPRP,0.471
9,RRIRKRPPRLPRPRPRPVMMPRP,0.155
10,RRIRKRPPRLPRPRPRPVNLPRP,-0.0889
11,RRIRKRPPRLPRPRPRPVNPPRP,-0.0659
12,RRIRKRPPRLPRPRPRPVPGPRP,0.515
13,RRIRKRPPRLPRPRPRPVPMPRP,0.355
14,RRIRKRPPRLPRPRPRPVQIPRP,0.13
15,RRIRKRPPRLPRPRPRPVRNPRP,0.308
16,RRIRKRPPRLPRPRPRPVRPPRP,1.28
17,RRIRKRPPRLPRPRPRPVRVPRP,0.591
18,RRIRKRPPRLPRPRPRPVSLPRP,0.0505
19,RRIRKRPPRLPRPRPRPVSQPRP,0.147
20,RRIRKRPPRLPRPRPRPVSTPRP,-0.102
21,RRIRKRPPRLPRPRPRPVTKPRP,0.063
22,RRIRKRPPRLPRPRPRPVVIPRP,-0.112

row,Sequence,shrunken log2 fold change
1,RRIRKRPPRLPRPRPRPVVRPRP,-0.0886
2,RRIRKRPPRLPRPRPRPVVTPRP,0.417
3,RRIRKRPPRLPRPRPRPVWNPRP,-0.106
4,RRIRKRPPRLPRPRPRPVYCPRP,-0.199
5,RRIRKRPPRLPRPRPRPVYNPRP,-0.0144
6,RRIRKRPPRLPRPRPRPVYYPRP,-0.094
7,RRIRKRPPRLPRPRPRPWAHPRP,4.43
8,RRIRKRPPRLPRPRPRPWCGPRP,0.153
9,RRIRKRPPRLPRPRPRPWCHPRP,-0.15
10,RRIRKRPPRLPRPRPRPWDAPRP,0.496
11,RRIRKRPPRLPRPRPRPWDSPRP,0.0485
12,RRIRKRPPRLPRPRPRPWEQPRP,0.0133
13,RRIRKRPPRLPRPRPRPWFYPRP,-0.0799
14,RRIRKRPPRLPRPRPRPWGFPRP,0.0651
15,RRIRKRPPRLPRPRPRPWGSPRP,-0.034
16,RRIRKRPPRLPRPRPRPWHGPRP,-0.165
17,RRIRKRPPRLPRPRPRPWIMPRP,-0.132
18,RRIRKRPPRLPRPRPRPWKKPRP,0.0118
19,RRIRKRPPRLPRPRPRPWLMPRP,0.0931
20,RRIRKRPPRLPRPRPRPWLVPRP,0.177
21,RRIRKRPPRLPRPRPRPWMLPRP,-0.266
22,RRIRKRPPRLPRPRPRPWNDPRP,0.0299

row,Sequence,shrunken log2 fold change
1,RRIRKRPPRLPRPRPRPWNIPRP,-0.275
2,RRIRKRPPRLPRPRPRPWNPPRP,0.159
3,RRIRKRPPRLPRPRPRPWPFPRP,0.0352
4,RRIRKRPPRLPRPRPRPWQQPRP,0.608
5,RRIRKRPPRLPRPRPRPWQVPRP,-0.0062
6,RRIRKRPPRLPRPRPRPWVKPRP,-0.148
7,RRIRKRPPRLPRPRPRPWVYPRP,0.107
8,RRIRKRPPRLPRPRPRPWYTPRP,-0.177
9,RRIRKRPPRLPRPRPRPWYYPRP,-0.198
10,RRIRKRPPRLPRPRPRPYAAPRP,-0.102
11,RRIRKRPPRLPRPRPRPYANPRP,-0.091
12,RRIRKRPPRLPRPRPRPYAQPRP,-0.00925
13,RRIRKRPPRLPRPRPRPYDKPRP,-0.124
14,RRIRKRPPRLPRPRPRPYFLPRP,-0.278
15,RRIRKRPPRLPRPRPRPYGQPRP,-0.306
16,RRIRKRPPRLPRPRPRPYHWPRP,-0.164
17,RRIRKRPPRLPRPRPRPYLFPRP,-0.0275
18,RRIRKRPPRLPRPRPRPYMHPRP,-0.0355
19,RRIRKRPPRLPRPRPRPYSCPRP,-0.0242
20,RRIRKRPPRLPRPRPRPYTVPRP,-0.0362
21,RRIRKRPPRLPRPRPRPYTYPRP,-0.119
22,RRIRLRPPRLPRPRPRPACPPRP,-0.00982

row,Sequence,shrunken log2 fold change
1,RRIRLRPPRLPRPRPRPAEAPRP,0.0653
2,RRIRLRPPRLPRPRPRPAEIPRP,-0.219
3,RRIRLRPPRLPRPRPRPAFGPRP,0.359
4,RRIRLRPPRLPRPRPRPAFIPRP,-0.116
5,RRIRLRPPRLPRPRPRPAFNPRP,-0.189
6,RRIRLRPPRLPRPRPRPAFSPRP,0.106
7,RRIRLRPPRLPRPRPRPAGHPRP,-0.0387
8,RRIRLRPPRLPRPRPRPAHLPRP,0.343
9,RRIRLRPPRLPRPRPRPALDPRP,0.396
10,RRIRLRPPRLPRPRPRPALQPRP,0.215
11,RRIRLRPPRLPRPRPRPALRPRP,0.178
12,RRIRLRPPRLPRPRPRPAPHPRP,0.514
13,RRIRLRPPRLPRPRPRPAPMPRP,0.118
14,RRIRLRPPRLPRPRPRPASDPRP,-0.19
15,RRIRLRPPRLPRPRPRPASQPRP,-0.18
16,RRIRLRPPRLPRPRPRPATSPRP,-0.149
17,RRIRLRPPRLPRPRPRPAYRPRP,-0.0396
18,RRIRLRPPRLPRPRPRPCAAPRP,0.236
19,RRIRLRPPRLPRPRPRPCADPRP,0.151
20,RRIRLRPPRLPRPRPRPCAGPRP,0.0736
21,RRIRLRPPRLPRPRPRPCCGPRP,-0.00366
22,RRIRLRPPRLPRPRPRPCFDPRP,-0.293

row,Sequence,shrunken log2 fold change
1,RRIRLRPPRLPRPRPRPCFFPRP,-0.13
2,RRIRLRPPRLPRPRPRPCFQPRP,-0.512
3,RRIRLRPPRLPRPRPRPCGIPRP,0.142
4,RRIRLRPPRLPRPRPRPCGNPRP,0.0862
5,RRIRLRPPRLPRPRPRPCGRPRP,0.147
6,RRIRLRPPRLPRPRPRPCHDPRP,-0.116
7,RRIRLRPPRLPRPRPRPCIQPRP,-0.675
8,RRIRLRPPRLPRPRPRPCITPRP,-0.275
9,RRIRLRPPRLPRPRPRPCKQPRP,0.0377
10,RRIRLRPPRLPRPRPRPCLIPRP,-0.0321
11,RRIRLRPPRLPRPRPRPCMHPRP,-0.0286
12,RRIRLRPPRLPRPRPRPCMLPRP,-0.398
13,RRIRLRPPRLPRPRPRPCPIPRP,-0.335
14,RRIRLRPPRLPRPRPRPCPNPRP,0.0236
15,RRIRLRPPRLPRPRPRPCPRPRP,0.0559
16,RRIRLRPPRLPRPRPRPCPWPRP,-0.129
17,RRIRLRPPRLPRPRPRPCQSPRP,-0.0018
18,RRIRLRPPRLPRPRPRPCQVPRP,-0.128
19,RRIRLRPPRLPRPRPRPCSCPRP,0.00383
20,RRIRLRPPRLPRPRPRPCTEPRP,-0.0105
21,RRIRLRPPRLPRPRPRPCVGPRP,-0.0253
